# Source: IntAct's records for PubMed 9422760
# B1: Proline-serine-threonine phosphatase-interacting protein 1 (Homo sapiens), O43586 (parent)
# chain: MMPQLQFKDAFWCRDFTAHTGYEVLLQRLLDGRKMCKDMEELLRQRAQAEERYGKELVQIARKAGGQTEINSLRASFDSLKQQMENVGSSHIQLALTLREELRSLEEFRERQKEQRKKYEAVMDRVQKSKLSLYKKAMESKKTYEQKCRDADDAEQAFERISANGHQKQVEKSQNKARQCKDSATEAERVYRQSIAQLEKVRAEWEQEHRTTCEAFQLQEFDRLTILRNALWVHSNQLSMQCVKDDELYEEVRLTLEGCSIDADIDSFIQAKSTGTEPPAPVPYQNYYDREVTPLTSSPGIQPSCGMIKRFSGLLHGSPKTTSLAASAASTETLTPTPERNEGVYTAIAVQEIQGNPASPAQEYRALYDYTAQNPDELDLSAGDILEVILEGEDGWWTVERNGQRGFVPGSYLEKL
# partner: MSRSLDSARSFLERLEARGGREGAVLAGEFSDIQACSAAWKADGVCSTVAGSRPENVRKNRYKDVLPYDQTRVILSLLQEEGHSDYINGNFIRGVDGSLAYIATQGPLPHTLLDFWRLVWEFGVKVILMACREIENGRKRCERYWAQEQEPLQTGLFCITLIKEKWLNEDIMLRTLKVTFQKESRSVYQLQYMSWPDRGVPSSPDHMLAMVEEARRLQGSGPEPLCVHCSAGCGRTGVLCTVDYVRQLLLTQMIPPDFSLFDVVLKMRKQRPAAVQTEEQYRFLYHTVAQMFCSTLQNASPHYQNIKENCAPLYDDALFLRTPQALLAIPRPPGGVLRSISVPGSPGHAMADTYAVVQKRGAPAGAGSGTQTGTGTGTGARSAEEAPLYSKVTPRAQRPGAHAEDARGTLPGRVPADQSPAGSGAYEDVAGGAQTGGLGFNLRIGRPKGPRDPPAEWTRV
# B2: Tyrosine-protein phosphatase non-receptor type 18 (Homo sapiens), Q99952 (parent)
# chain: B1 partner
# Variants of: B1
# Conditions: with ptn18_human PTPN18, Q99952
row,effect of a mutation on the interaction,Variant
1,disrupting interaction,W232A

# Variants of: B2
# Conditions: with ppip1_human PSTPIP1, O43586
row,effect of a mutation on the interaction,Variant
1,increasing interaction,MSRSLDSARSFLERLEARGGREGAVLAGEFSDIQACSAAWKADGVCSTVAGSRPENVRKNRYKDVLPYDQTRVILSLLQEEGHSDYINGNFIRGVDGSLAYIATQGPLPHTLLDFWRLVWEFGVKVILMACREIENGRKRCERYWAQEQEPLQTGLFCITLIKEKWLNEDIMLRTLKVTFQKESRSVYQLQYMSWPDRGVPSSPDHMLAMVEEARRLQGSGPEPLCVHSSAGCGRTGVLCTVDYVRQLLLTQMIPPDFSLFDVVLKMRKQRPAAVQTEEQYRFLYHTVAQMFCSTLQNASPHYQNIKENCAPLYDDALFLRTPQALLAIPRPPGGVLRSISVPGSPGHAMADTYAVVQKRGAPAGAGSGTQTGTGTGTGARSAEEAPLYSKVTPRAQRPGAHAEDARGTLPGRVPADQSPAGSGAYEDVAGGAQTGGLGFNLRIGRPKGPRDPPAEWTRV [C229S]

# Variants of: B2
# Conditions: with ppip1_human PSTPIP1, O43586
# Remark: another data set of the same source
row,effect of a mutation on the interaction,Variant
1,disrupting interaction,MSRSLDSARSFLERLEARGGREGAVLAGEFSDIQACSAAWKADGVCSTVAGSRPENVRKNRYKDVLPYDQTRVILSLLQEEGHSDYINGNFIRGVDGSLAYIATQGPLPHTLLDFWRLVWEFGVKVILMACREIENGRKRCERYWAQEQEPLQTGLFCITLIKEKWLNEDIMLRTLKVTFQKESRSVYQLQYMSWPDRGVPSSPDHMLAMVEEARRLQGSGPEPLCVHCSAGCGRTGVLCTVDYVRQLLLTQMIPPDFSLFDVVLKMRKQRPAAVQTEEQYRFLYHTVAQMFCSTLQNASPHYQNIKENCAPLYDDALFLRTPQALLAIPRPPGGVLRSISVPGSPGHAMADTYAVVQKRGAPAGAGSGTQTGTGTGTGARSAEEAPLYSKVTPRAQRPGAHAEDARGTLPGRVPADQSPAGSGAYEDVAGGAQTGGLGFNLRIGRAKGPRDPPAEWTRV [P447A]
